Test results taken from patent US20080015165A1, “NOVEL POLYPEPTIDE” (KYOWA HAKKO KOGYO CO., LTD., priority 1998, published 2008).

What was measured:
[1] = Enzyme activity for monofucosylpoly-N-acetyllactosamine sugar chain P1, Namalwa cell extract, HPLC; assay type: biochemical; conditions: relative activity with the activity for P1 assumed to be 1
Procedure: Samples were allowed to react in 20 μl of an assay solution [50 mM cacodylate (pH 6.8), 5 mM ATP, 10 mM L-fucose, 75 μM […] (manufactured by SIGMA), 25 mM MnCl2, 15 μM fluorescently labeled sugar chain substrate, 6 μl of the cell lysate above] at 37° C. for 2 hours, followed by treatment at 100° C. for 3 minutes to stop the reaction. Next 200 μl of water was added to the samples, and the supernatant was obtained by centrifugation at 10,000×g for 5 minutes. Using an aliquot of the supernatant (10 μl), products were analyzed by HPLC under the following conditions.
HPLC: • Column—TSK-gel ODS-80TsQA column (4.6×250 mm; TOSOH CORPORATION) • Eluate—0.02 M ammonium acetate (pH 4.0) containing 7% methanol • Elution temperature—50° C. • Flow rate—1.0 ml/min. • Detection—Fluorescence spectrum photometer FB-920 (manufactured by JASCO Corporation) (excitation wavelength: 330 nm, radiation wavelength: 420 nm)
The enzymatic activities of Fuc-TIV, Fuc-TVI and Fuc-TIX were measured using the product P1 or P2 as a substrate in addition to the above substrate (S).

[2] = system: Namalwa cells; experiment: Indirect fluorescent antibody staining (FACS) of transformed Namalwa cells; assay type: cell-based, human; conditions: FIG. 1
Procedure: The plasmids were dissolved in 10 μl of TE buffer. Then each of the plasmids was introduced into Namalwa cells by electroporation method [Cytotechnology, 3, 133 (1990)].
After introducing […] of the plasmids prepared as described above or 4 μg of pAMo (control plasmid) per 1.0×10^6 to 1.6×10^6 cells (200 μl) by electroporation method, the cells were suspended in 8 ml of RPMI1640 media and then cultured in a CO2 incubator for 24 hours at 37° C.
After culturing, the medium was supplemented with G418 (manufactured by GIBCO BRL) to 0.5 mg/ml followed by culturing for another 10 to 14 days, thereby obtaining transformed cells.
Indirect fluorescent antibody staining using the anti-Lewis x sugar chain antibody (PM-81) was performed as follows.
About 1×10^6 transformed cells were added to a microtube (1.5 ml: manufactured by Eppendolf) and then the cells were collected by centrifugation (550×g, 7 minutes).
The cells were washed with 0.9 ml of A-PBS, suspended by adding 20 μl of the anti-Lewis x sugar chain antibody (PM-81) that had been diluted with A-PBS to about 10 μg/ml, and then allowed to react for 1 hour at 4° C. […]
After the reaction, the cells were washed once with 0.9 ml of A-PBS, and then suspended in 0.6 ml of A-PBS, followed by the analysis using a fluorescence activated cell sorter. […]

[3] = system: Namalwa KJM-1 cells; experiment: Indirect fluorescent antibody staining (FACS) of transformed Namalwa KJM-1 cells; assay type: cell-based, human; conditions: antibodies CSLEX-1, KM93; FIG. 2 (also Namalwa cells, FIG. 1)
Excerpt: Similarly, Namalwa KJM-1 cells, into which a control plasmid (pAMo), a mouse Fuc-TIX expression plasmid (pAMo-mFT9), a human Fuc-TIV expression plasmid (pAMo-FT4), or a human Fuc-TVII expression plasmid (pAMo-FT7) had been introduced, were obtained. The cells were subjected to indirect fluorescent antibody staining using the anti-Lewis x sugar chain antibody (KM380) and an anti-sialyl Lewis x sugar chain antibodies (CSLEX-1 or KM93) (see FIG. 2).

[4] = system: COS-1 cells; experiment: Indirect fluorescent antibody staining (FACS) of transformed COS-1 cells; assay type: cell-based, African green monkey; conditions: antibody 7LE; FIG. 3
Procedure: Further, COS-1 cells, into which a control plasmid (pCDM8), a mouse Fuc-TIX expression plasmid (pCDM8-mFT9), or a human Fuc-TIII expression plasmid (pCDM8-Le) had been introduced, were prepared. The cells were subjected to indirect fluorescent antibody staining using the anti-Lewis a sugar chain antibody (7LE, manufactured by […] CORPORATION) (see FIG. 3).
Each α1,3-fucosyltransferase expression plasmid (15 μg) was introduced into 1×10^7 COS-1 cells.
This introduction was performed by electroporation method using a gene pulser (manufactured by Bio-Rad) according to the Bio-Rad's instructional manual attached thereto. At this time, 1 μg of a luciferase expression vector, which was constructed by inserting β-actin promoter into a Hind III site of a vector pSVOA/L [Experimental Medicine, 7, 96, (1989)] was co-introduced as an index of gene transfer efficiency.

B1: Fuc-TIX: human Fuc-TIX, 359 amino acids (SEQ ID NO:2), α1,3-fucosyltransferase expressed from pAMo-FT9 in Namalwa cells (protein)
chain: MTSTSKGILRPFLIVCIILGCFMACLLIYIKPTNSWIFSPMESASSVLKMKNFFSTKTDYFNETTILVWVWPFGQTFDLTSCQAMFNIQGCHLTTDRSLYNKSHAVLIHHRDISWDLTNLPQQARPPFQKWIWMNLESPTHTPQKSGIEHLFNLTLTYRRDSDIQVPYGFLTVSTNPFVFEVPSKEKLVCWVVSNWNPEHARVKYYNELSKSIEIHTYGQAFGEYVNDKNLIPTISACKFYLSFENSIHKDYITEKLYNAFLAGSVPVVLGPSRENYENYIPADSFIHVEDYNSPSELAKYLKEVDKNNKLYLSYFNWRKDFTVNLPRFWESHACLACDHVKRHQEYKSVGNLEKWFWN
modifications: human
With B1 the “Enzymatic activity, substrate P1, product P3” value [1] was 1.0, the “synthesis of the Lewis x sugar chain in transformed cells” value [2] was “can synthesize” and the “synthesis of the Lewis y sugar chain in transformed cells” value [2] was “can synthesize”. For the same molecule, the “synthesis of the sialyl Lewis x sugar chain in transformed cells” value [3] was “cannot synthesize” and the “synthesis of the Lewis a sugar chain in transformed cells” value [4] was “cannot synthesize”.
